The record followed here is publication PMC2175517.

In this series the target is poly(ADP-ribosyl)ated GST-Sp1-8xHis (UniProt P08047). The series can be described thus: EMSA. Particulars: after PARP-1 + 200 uM NAD+ + nicked DNA; approximately 71% reduction; EMSA in buffer D (5 mM HEPES, 10% glycerol, 0.05 mM EDTA, 0.125 mM PMSF), 25 ng poly(dI-dC) (omitted for recombinant Sp1), room temperature 5 min; pH not …. Background: A gel shift assay detects complexes by their altered migration in electrophoresis.
Chain of UniProt P08047 (P08047 whole entry): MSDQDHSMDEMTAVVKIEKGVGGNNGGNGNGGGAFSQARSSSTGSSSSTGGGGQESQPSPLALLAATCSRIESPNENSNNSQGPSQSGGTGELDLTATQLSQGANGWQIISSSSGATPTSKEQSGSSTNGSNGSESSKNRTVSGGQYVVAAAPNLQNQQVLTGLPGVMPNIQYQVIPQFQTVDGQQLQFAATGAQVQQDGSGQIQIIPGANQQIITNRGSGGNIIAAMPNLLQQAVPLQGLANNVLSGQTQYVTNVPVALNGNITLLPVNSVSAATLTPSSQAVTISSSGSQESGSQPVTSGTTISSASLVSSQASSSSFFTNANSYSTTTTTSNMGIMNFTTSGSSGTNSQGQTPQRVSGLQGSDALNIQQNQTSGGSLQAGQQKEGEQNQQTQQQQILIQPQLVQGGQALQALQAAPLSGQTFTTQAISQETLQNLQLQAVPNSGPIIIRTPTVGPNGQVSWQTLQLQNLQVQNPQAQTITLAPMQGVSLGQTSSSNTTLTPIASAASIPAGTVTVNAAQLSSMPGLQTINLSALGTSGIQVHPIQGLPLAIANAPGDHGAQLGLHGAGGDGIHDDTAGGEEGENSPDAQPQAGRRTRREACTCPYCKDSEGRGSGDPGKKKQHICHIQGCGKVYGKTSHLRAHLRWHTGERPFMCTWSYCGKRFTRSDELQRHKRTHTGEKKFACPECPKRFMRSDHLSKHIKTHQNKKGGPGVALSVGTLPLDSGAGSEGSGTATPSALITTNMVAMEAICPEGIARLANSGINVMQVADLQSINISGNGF

Consider “GATCATATCTGCGGGGCGGGGCAGACACAG (double strand) [Sp1 oligonucleotide]”, for which the binding signal (% of unmodified Sp1) was 29.
